Among the data in PMC7079959 are stoichiometry N values, retold here.

This assay has as its target T1, MS2 bacteriophage coat protein (bacteriophage MS2), P03612.
T1 chain: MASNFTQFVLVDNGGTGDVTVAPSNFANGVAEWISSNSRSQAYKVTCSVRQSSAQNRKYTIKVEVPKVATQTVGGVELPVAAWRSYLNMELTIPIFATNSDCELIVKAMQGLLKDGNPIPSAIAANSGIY
The experiment in a line: SEC. The conditions noted are these: remark: other sources report otherwise.

B1: MS2 bacteriophage coat protein, P03612 1-130 (natural protein)
chain: MASNFTQFVLVDNGGTGDVTVAPSNFANGVAEWISSNSRSQAYKVTCSVRQSSAQNRKYTIKVEVPKVATQTVGGVELPVAAWRSYLNMELTIPIFATNSDCELIVKAMQGLLKDGNPIPSAIAANSGIY
B1 yielded a stoichiometry N of 2.

In general, stoichiometry N refers to a count of units in the complex or per binding partner.
